Experimental data reported in US7595158B2, “Bcl2L12 polypeptide activators and inhibitors” (Dana-Farber Cancer Institute, Inc., priority 2003, dated 2009).

T1: caspase-9 (Homo sapiens, UniProt P55211)
T1 construct: endogenous in cells; host or cells: 293T
T1 sequence (P55211 1-416): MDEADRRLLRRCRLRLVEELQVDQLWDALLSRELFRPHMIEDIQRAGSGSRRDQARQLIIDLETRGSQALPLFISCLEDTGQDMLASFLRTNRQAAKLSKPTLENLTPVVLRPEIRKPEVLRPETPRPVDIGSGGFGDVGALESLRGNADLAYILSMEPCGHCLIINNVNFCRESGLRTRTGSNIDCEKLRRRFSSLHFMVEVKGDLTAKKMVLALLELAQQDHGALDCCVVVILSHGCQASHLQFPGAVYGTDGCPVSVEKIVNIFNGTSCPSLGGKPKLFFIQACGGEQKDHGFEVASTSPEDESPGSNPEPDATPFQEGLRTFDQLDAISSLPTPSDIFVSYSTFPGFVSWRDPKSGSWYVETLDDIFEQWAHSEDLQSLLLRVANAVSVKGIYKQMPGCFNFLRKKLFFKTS


Experiments:
[1] = tested on: Ink4a/Arf deficient astrocytes; test: DNA fragmentation (sub-G1, FACS) in Ink4a/Arf deficient astrocytes after apoptotic stimuli; assay type: cell-based, mouse; details: for DNA fragmentation: 500 nM STS, pBabe about 22 percent
Description: After STS treatment, the cells were analyzed for apoptosis by assessing annexin V binding and DNA fragmentation using a FACS based analysis.
In a separate experiment, Ink4a/Arf deficient astrocytes ectopically expressing Bcl2L12-V5 polypeptide or containing an empty vector as control were treated with 0, 50, 100, or 1000 nM of STS. After a 24 hour-incubation, DNA fragmentation was measured using FACS-based quantification of sub-G1 DNA content.
In another experiment, Ink4a/Arf deficient astrocytes ectopically expressing Bcl2L12-V5 polypeptide or containing an empty vector as control were treated with 0, 2, 4, 8, 16, or 32 μM camptothecin (CPT) for 20 hours. After the 20 hour incubation, DNA fragmentation was determined by FACS-based quantification of sub-G1 peaks. Expression of the Bcl2L12 polypeptide conferred resistance to CPT-stimulated apoptosis.
Ink4a/Arf deficient astrocytes ectopically expressing Bcl2L12-V5 polypeptide or containing an empty vector as control were treated with TNFα in the presence of 1 μg/mL cycloheximide for 24 hours. After the 24 hour incubation, DNA fragmentation was measured using FACS-based quantification of sub-G1 DNA content.
Ink4a/Arf deficient astrocytes ectopically expressing Bcl2L12-V5 polypeptide or containing an empty vector as control were treated with 0, 10, 50, and 100 Gray (Gy) of γ radiation. After 24 hours, DNA fragmentation was measured. Ectopic expression of a Bcl2L12 polypeptide protects INK4a/Arf deficient astrocytes from γ-irradiation-induced apoptosis (FIG. 5C).

cytochrome c release = test: Cytochrome c release in STS-treated astrocytes; assay type: cell-based
Description: To determine whether Bcl2L12 polypeptides inhibit the apoptogenic activity of mitochondria, cytochrome c release in STS-treated astrocytes over-expressing Bcl2L12-V5 polypeptides was assessed and compared to astrocytes transfected with a LacZ control vector. An anti-tubulin immunoblot was performed as a loading control. Suboptimal concentrations of digitonin were used to allow for selective permeabilization of the plasma membrane, but not of the intracellular membranes. […] This is consistent with the inability of Bcl2L12-V5 polypeptides to localize to mitochondria.

caspase-9 = target: T1, caspase-9; test: Caspase-9 in vitro cleavage and LEHDase activity assay with 293T cells; assay type: cell-based; details: for caspase-9 activity: V5 tagged constructs, vector only about 420 RFUs
Description: To determine if Bcl2L12 polypeptides could-regulate-the activity of caspase-9, a cell-free system was used in which exogenously added dATP and cytochrome c induced the activation of [^35S] labeled in vitro translated caspase-9. […] To confirm the inhibitory effect of Bcl2L12 polypeptides on caspase-9 maturation, 293T cells ectopically expressing Bcl2L12-V5 polypeptides where either subjected to an in vitro cleavage assay or to an activity assay using the caspase-9 specific fluorogenic peptide LEHD.
In addition, vectors encoding V5 tagged wild-type human Bcl2L12 polypeptide (WT; human amino acid sequence 1-334) and three V5 tagged truncation mutants of human Bcl2L12 (Bcl2L12-ΔBH2 polypeptide, human amino acid sequence 1-310; Bcl2L12-ΔBH2ΔP-r polypeptide, human amino acid sequence 1-267; and Bcl2L12-ΔBH2ΔP-rΔIHD polypeptide, human amino acid sequence 1-167) were made (FIG. 4A). These vectors expressed the appropriately sized polypeptides when translated in vitro or when expressed in 293T cells.

caspases 3 and 7 = test: Western blot of procaspase maturation in STS-treated Ink4a/Arf deficient astrocytes; assay type: cell-based, mouse; details: STS 1 μM, 0-16 hours
Description: In another experiment, Ink4a/Arf deficient astrocytic cell cultures ectopically expressing the Bcl2L12-V5 polypeptide or containing pBabe were treated with STS (1 μM) for 0, 2, 4, 8, or 16 hours. Cell lysates were analyzed by Western blotting using anti-caspase-9 antibodies (1:1000; Cell Signaling), anti-caspase-7 antibodies (0.5 μg/ml; BD Pharmingen), anti-caspase-3 antibodies (0.25 μg/ml; BD Transduction Laboratories), anti-cleaved caspase-9 antibodies (1:1000; Cell Signaling), anti-cleaved capase-7 antibodies (1:1000; Calbiochem), and anti-cleaved caspase-3 antibodies (1:1000; Calbiochem).

astrocytes = test: Mitochondrial membrane potential (JC-1, FACS) in STS-treated astrocytes; assay type: cell-based
Description: Like nuclear swelling and plasma membrane integration, a loss of the mitochondrial membrane potential is a hallmark of […]. To determine the dissipation of ΔΨM, STS treated astrocytes transfected with either vector only (pBabe) or a vector encoding a Bcl2L12-V5 polypeptide were stained with JC-1, and cells with an increase in fluorescence (FL-1) were quantified using FACS analysis. JC-1 (5,5′,6,6′-tetrachloro-1,1′,3,3′-tetraethylbenzimidazolylcarbocyanine iodide) is a green-fluorescent probe that exists as a monomer at low concentrations or at low membrane potential. […] Thus, the emission of this cyanine dye can be used as a sensitive measure of mitochondrial membrane potential.

[2] = tested on: p53 mediated transcription; test: p53 luciferase reporter (PG13) in Ink4a/Arf deficient astrocytes; assay type: cell-based; details: normalized to βGal, vs vector control
Description: Activation of the p53 transcription factor in response to a variety of cellular stresses, including DNA damage and oncogene activation, initiates a program of gene expression that blocks the proliferative expansion of damaged cells. To asses the effect of Bcl2L12 polypeptides on p53 mediated transcription, Ink4a/Arf deficient astrocytes ectopically expressing a Bcl2L12-V5 polypeptide were transfected with increasing amounts of nucleic acid encoding a p53 polypeptide and a luciferase construct bearing a dimerized p53 binding site in its promoter (PG13).

Erk1 and Erk2 = test: Phosphorylation of Erk1/2 (p44/p42) in transfected astrocytes; assay type: cell-based; details: vs control cells expressing LacZ
Description: Ink4a/Arf deficient astrocytes transfected with a vector encoding either LacZ, Bcl2L12-V5, or EGFR* polypeptides were cultured for six days. Each day, the number of cells in each culture was determined. In addition, stably transfected cells were harvested and assessed for the phosphorylation of Erk1/2 (p44/p42).

Row | caspase-9 activity (caspase-9) | processing of caspase-9 into p37 and p35 (caspase-9; in vitro cleavage assay, 293T cells, vs vector only) | Molecule | resistance to anti-Fas, TRAIL, etoposide, and carboplatin mediated apoptosis [1] | DNA fragmentation [1] | protection from γ-irradiation-induced apoptosis (DNA fragmentation) ([1]; 10, 50, 100 Gy, 24 hours) | protection from STS-induced apoptosis (DNA fragmentation) ([1]; 50, 100, or 1000 nM STS, 24 hours) | protection from TNFα-mediated apoptosis (DNA fragmentation) ([1]; TNFα with 1 μg/mL cycloheximide, 24 hours) | maximum percent DNA fragmentation ([1]; camptothecin up to 32 μM, 20 hours, pBabe greater than 60 percent) | cytochrome c release (cytochrome c release) | LEHDase activity (caspase-9; 293T cells, control vector about 800 RFUs) | maturation of effector caspases (caspases 3 and 7) | dissipated mitochondrial membrane potential (astrocytes) | transcriptional activity of p53 (reporter activity) [2] | levels of Erk1 and Erk2 phosphorylation (Erk1 and Erk2)
1 | about 145 RFUs | reduced processing of caspase-9 | Bcl2L12-V5: Bcl2L12 polypeptide having the V5 epitope tag, ectopically expressed from pBabe-Bcl2L12-V5 vector; human amino acid sequence 1-334 (protein, left off: small tags and cut ends) MGRPAGLFPPLCPFLGFRPEACWERHMQIERAPSVPPFLRWAGYRPGPVRRRGKVELIKFVRVQWRRPQVEWRRRRWGPGPGASMAGSEELGLREDTLRVLAAFLRRGEAAGSPVPTPPRSPAQEEPTDFLSRLRRCLPCSLGRGAAPSESPRPCSLPIRPCYGLEPGPATPDFYALVAQRLEQLVQEQLKSPPSPELQGPPSTEKEAILRRLVALLEEEAEVINQKLASDPALRSKLVRLSSDSFARLVELFCSRDDSSRPSRACPGPPPPSPEPLARLALAMELSRRVAGLGGTLAGLSVEHVHSFTPWIQAHGGWEGILAVSPVDLNLPLD | complete resistance | about 2% | protects | protected astrocytes from STS-induced apoptosis | significant protection | 35 to 45% | did not block cytochrome c release | about 260 RFUs | significant reduction of the maturation of effector caspases 3 and 7 | marked increase in the dissipated membrane potential | marked decrease of transcriptional activity | higher
2 | about 160 RFUs | – | Bcl2L12-V5-ΔBH2: V5 tagged mutant lacking amino acid residues 311-334 (BH2 domain) of human Bcl2L12; sequence 1-310 (protein, left off: small tags and cut ends) MGRPAGLFPPLCPFLGFRPEACWERHMQIERAPSVPPFLRWAGYRPGPVRRRGKVELIKFVRVQWRRPQVEWRRRRWGPGPGASMAGSEELGLREDTLRVLAAFLRRGEAAGSPVPTPPRSPAQEEPTDFLSRLRRCLPCSLGRGAAPSESPRPCSLPIRPCYGLEPGPATPDFYALVAQRLEQLVQEQLKSPPSPELQGPPSTEKEAILRRLVALLEEEAEVINQKLASDPALRSKLVRLSSDSFARLVELFCSRDDSSRPSRACPGPPPPSPEPLARLALAMELSRRVAGLGGTLAGLSVEHVHSFTP | – | about 7% | – | – | – | – | exhibited cytochrome c release | – | – | – | – | –
